{
  "source": "the nanobody polyreactivity screen of Harvey et al. (2022)",
  "data": [
    {"assay": "yeast display, Sf9 membrane polyspecificity reagent, FACS + sequencing; frameworks hold sequencing errors", "in_short": "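Galactose-induced (36–48 hours) yeast carrying a synthetic nanobody display library were exposed to 10% biotinylated, detergent-solubilized Sf9 membrane reagent at 4 °C for 1 hour. FACS followed streptavidin microbead enrichment, using low and high (top ~1%) gates for expression (anti-HA) and reagent binding (streptavidin). Colony PCR, MiSeq 2 × 250 sequencing and CDR-length filtering followed. Labels for polyreactivity reflect the gate of origin.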", "values": [
      {"sequence": "QVQLVESGGGLVQAGGSLRLSCAASGNTFNGYTMGWYRQATGKERELVAVISSYGGRTNYADSVKGRFTISRDNAKITLYLQLNSLKTEVTAVYYCAARSSRLPHIYGYWGQGTQVTVSS", "polyreactivity (PSR sort gate)": "low polyreactivity"},
      {"sequence": "QVQLVESGGGLVQAGGSLRLSCAASGNTFNVYAMGWYRQAPGKERELVAAITLSGGSTYYADSVKGRFTISRDNAKNTVYLQMNSLKPEDTAVYYCNAEEVGTDYDYWGQGTQVTVSS", "polyreactivity (PSR sort gate)": "low polyreactivity"},
      {"sequence": "QVQLVESGGGLVQAGGSLRLSCAASGNTFPLNAMGWYRQAPGKERDLVAGISRTGGSTYYADSVKGRFTISRDNAKNTVYLQMNSLKPEDTAVYYCAAQSRYWVVRMDYWGQGTQVTVSS", "polyreactivity (PSR sort gate)": "high polyreactivity"},
      {"sequence": "QVQLVESGGGLVQAGGSLRLSCAASGNTFPVYAMGWYRQAPGKERELVAAINTSGGSTYYADSVKGRFTISRDNAKYTVYLQMNSLKPEDTAVYYCAADWSYYGDELYYWGQGTQVTVSS", "polyreactivity (PSR sort gate)": "low polyreactivity"},
      {"sequence": "QVQLVESGGGLVQAGGSLRLSCAASGNTFPYYAMGWYRQAPGKEREYVATIDRGDGSTYYADSVKGRFTISRDNAKNTVYLQMNSVKPEDTAVYYCAKLRGAFIVPGRGYPIYYYWGQGTQVTVSS", "polyreactivity (PSR sort gate)": "high polyreactivity"},
      {"sequence": "QVQLVESGGGLVQAGGSLRLSCAASGNTFRAYAMGWYRQAPGKERELVATITWSGGITDYADSVKGRFTISRDNAKNTVSLQMNSLKPEDTAVYDCAARSYRWWNFNYWGQGTQVTVSS", "polyreactivity (PSR sort gate)": "high polyreactivity"},
      {"sequence": "QVQLVESGGGLVQAGGSLRLSCAASGNTFRFYTMGWYRQAPGKERELVAAINSSGRTNYADSVKGRFTISRDNAKNTVYLQMNSLIPEDTAVYYCAADQQRSIDAPYGYWGQGTQVTVSS", "polyreactivity (PSR sort gate)": "low polyreactivity"},
      {"sequence": "QVQLVESGGGLVQAGGSLRLSCAASGNTFRFYTMGWYRQAPGKERELVAAINSSGRTNYADSVKGRFTISRDNAKNTVYLQMNSLKPEDTAVYYCAADYYQWSSFLGVYEYDYWGQGTQVTVSS", "polyreactivity (PSR sort gate)": "low polyreactivity"},
      {"sequence": "QVQLVESGGGLVQAGGSLRLSCAASGNTFRIYTMGWYRQAPGKERELVATITRRGGSTYYADSVKGRFTISRDNAKNTVYLQMNSLKPEDTAVYYCAARVRGTGVYGGYNYWGQGTQVTVSS", "polyreactivity (PSR sort gate)": "high polyreactivity"},
      {"sequence": "QVQLVESGGGLVQAGGSLRLSCAASGNTFRRNVMGWYRQAPGKERELVAAINRGGSTTDADSVKGRFTISRDNAKNTVYLQMNSLKPEDTAVYYCNARTLFKWRHGHYYAYDYWGQGTQVTVSS", "polyreactivity (PSR sort gate)": "high polyreactivity"},
      {"sequence": "QVQLVESGGGLVQAGGSLRLSCAASGNTFRVYTMGWYRQAPGKERELVAAINSSGRTNYADSVKGRFTISRDNAKNTVYLLMNCLKPEDTAVYYCAADYYQWSTFLGVYEYAYWGQGTQVTVSS", "polyreactivity (PSR sort gate)": "low polyreactivity"},
      {"sequence": "QVQLVESGGGLVQAGGSLRLSCAASGNTFRWNAMGWYRQAPGKERELVAGISIDDGSNYADSVKGRFTISRDNAKKTVYLQMNSLTPEDTAVYDCNRDWALYVFGRHYHAYYSWGQGTHVTVSS", "polyreactivity (PSR sort gate)": "low polyreactivity"},
      {"sequence": "QVQLVESGGGLVQAGGSLRLSCAASGNTFRYYAMGWYRQAPGKERELVAVITTRGGSTNYADSVKGRFTISRDNAKNTVYLQMNSLKPEDTAVYYCAARPGIRSYPPGYGYWGQGTQVTVSS", "polyreactivity (PSR sort gate)": "low polyreactivity"},
      {"sequence": "QVQLVESGGGLVQAGGSLRLSCAASGNTFSDYAMGWYRQAPGKERELVAAISSSGVRTYYADSVKGRYTISRDNAKNTVYLQINSLKPEDTAVSYCNAVLNQLSYIYPAVGFWGQGTLVTVSS", "polyreactivity (PSR sort gate)": "high polyreactivity"},
      {"sequence": "QVQLVESGGGLVQAGGSLRLSCAASGNTFSRYAMGWYRQAPGKERELVAAISYSTGSTRYADSVKGRFTISRDNAKNTVYLQMNSLKPEDTAVYYCAARAKSRGYWGQGTQVTVSS", "polyreactivity (PSR sort gate)": "high polyreactivity"},
      {"sequence": "QVQLVESGGGLVQAGGSLRLSCAASGNTFSSNAMGWYRQAPGKERELVAAISWSGGRTYYADSVKGRFTISRDNAKNTVYLQMNSLKPEDTAVYYCAAALGRRRTGYDYWGQGTQVTVSS", "polyreactivity (PSR sort gate)": "high polyreactivity"},
      {"sequence": "QVQLVESGGGLVQAGGSLRLSCAASGNTFTRNTMGWYRPAPGKERELVASISLSGASTYYADSVKGRFTISRDNAKNTVYLQMNSLKPEDTAVYYCAAEYFNYKTDVDYWGQGTQVTVSS", "polyreactivity (PSR sort gate)": "high polyreactivity"},
      {"sequence": "QVQLVESGGGLVQAGGSLRLSCAASGNTFTWYTMGWYRQAPGKERELVAAISSSGGNTYYADSVKGRFTISRDNAKNTVYLQMNSLKPEDTAVYYCAADLSSAYGHDYRGQGTQVTVSS", "polyreactivity (PSR sort gate)": "low polyreactivity"},
      {"sequence": "QVQLVESGGGLVQAGGSLRLSCAASGNTFTWYTMGWYRQAPGKERELVAVITSDGSTYYADSVKGRFTISRDNAKNTVYLQMNSLKPEDTAVYYCNKATVTGQESYAYDYWGQGTQVTVSS", "polyreactivity (PSR sort gate)": "low polyreactivity"},
      {"sequence": "QVQLVESGGGLVQAGGSLRLSCAASGNTFTWYTMGWYRQAPGKERELVAVMTSDGSTYYADSVKGRFTISRDNAKNTVSFQMNSLKPEDTAVYYCNRGVFDTFYYYPQVGFGYWGQGTQVTVSS", "polyreactivity (PSR sort gate)": "low polyreactivity"},
      {"sequence": "QVQLVESGGGLVQAGGSLRLSCAASGNTFTYYAMGWYRQAPGKERELVAAISSGGRTYYADSVKGRFTISRDNAKNTVYLQMNSLKPEDTAVYYCAARIKYGYPGPRYYYWGQGTQVTVSS", "polyreactivity (PSR sort gate)": "high polyreactivity"},
      {"sequence": "QVQLVESGGGLVQAGGSLRLSCAASGNTFVTYAMGWYRQAPGKVRELVATISSSGGSTYYADSVKGRFTISRDNAKNTVYLQMNSLKPEDTAVYYCAKQAWAYALYTNFYSGDYGYWGQGTQVTVSS", "polyreactivity (PSR sort gate)": "low polyreactivity"},
      {"sequence": "QVQLVESGGGLVQAGGSLRLSCAASGNTFVYYAMGWYRQAPGKERELVAGISRRSGSTYYADSVKGRFTISRDNAKNTVYLQMNSLKPEDTAVYYCAIGRTYLDAEDYWGQGSQVTVSS", "polyreactivity (PSR sort gate)": "low polyreactivity"},
      {"sequence": "QVQLVESGGGLVQAGGSLRLSCAASGNTFWFYRMGWYRQAPGKERELVAAITSGGSTDYADSVKGRFTISRDNAKNTVYLQMNSLKPEDTAVYYCAAEPVAYYGSSYGYWGQGTQVTVSS", "polyreactivity (PSR sort gate)": "low polyreactivity"},
      {"sequence": "QVQLVESGGGLVQAGGSLRLSCAASGNTFWGNAMGWYRQAPGKERELVATISASAGSTYYADSVKGRFTISRDNAKNTVYLQMNSLKPDDTAVYYCAKTALRYLKHGRTKGDYWGQGTQVTLSS", "polyreactivity (PSR sort gate)": "low polyreactivity"},
      {"sequence": "QVQLVESGGGLVQAGGSLRLSCAASGNTFYGYAMGWYRQAPGKERELVAAITKTGGSTYYADSVKGRFTISRDNAKNTVYLQMNSLKPEDTAVYYCNAARETRPRDYYWGQGTQVTVSS", "polyreactivity (PSR sort gate)": "low polyreactivity"},
      {"sequence": "QVQLVESGGGLVQAGGSLRLSCAASGNTFYKNTMGWYRQAPWKERELVAAISQRGTRTYYADSVKGRFTISRDNAKNTVYLQMNSLKPEDTAVYYCATDLSQVGFDYWGQGTQVTVSS", "polyreactivity (PSR sort gate)": "high polyreactivity"},
      {"sequence": "QVQLVESGGGLVQAGGSLRLSCAASGNTFYRYAMGRYRQAPGKEREFVAGITSRGGSTSYADSVKGRFTISRDSAKNTVYLQMNILKPEDTAVYYCAARYSKVHFAYDYWGQGTQVTVSS", "polyreactivity (PSR sort gate)": "high polyreactivity"},
      {"sequence": "QVQLVESGGGLVQAGGSLRLSCAASGNTFYSNAMGWYRQAPGKERDLVAAISASGTTTYYADSVKGRFTISRDNAKNTVYLQMNSLKPEDTAVYYCAAVAPTRATRREDSWGQGTQVTVSS", "polyreactivity (PSR sort gate)": "high polyreactivity"},
      {"sequence": "QVQLVESGGGLVQAGGSLRLSCAASGNTFYTYGMGWYRQAPGKERELVAAINHNGGSTYYADSVKARFTISRDNAKNTVYLQMNSLKPEDTAVYYCNADYSTYVERGSSVYYWYDYWGQGTQVTVSS", "polyreactivity (PSR sort gate)": "low polyreactivity"},
      {"sequence": "QVQLVESGGGLVQAGGSLRLSCAASGNTFYVYTMGWYRQAPGKERELVAAISSTGDRTYYADSVKGRFTISRDYAKNTVYLQMNSLKPEETAVYYCAARLYRGYRGYYYWGQGTQVTVSS", "polyreactivity (PSR sort gate)": "high polyreactivity"},
      {"sequence": "QVQLVESGGGLVQAGGSLRLSCAASGNTFYYNAMGWYRQAPGKEREFVAAITSSGGGTYYADSVKGRFTISRDNAKNTVYLQMNSLKPEDTAVYYCAADATYRKQVIFYYWGQGTQVTVSS", "polyreactivity (PSR sort gate)": "low polyreactivity"},
      {"sequence": "QVQLVESGGGLVQAGGSLRLSCAASGNTIIDYAMGWYRQPPGKERELVASITSGGGSTYYADSVKGRFTISRDNAKNTVYLQMNSLKPVDTAVYYCAAERYYSEAIFRSYDYWGQGTQVTVSS", "polyreactivity (PSR sort gate)": "low polyreactivity"},
      {"sequence": "QVQLVESGGGLVQAGGSLRLSCAASGNTLASYAMGWYRQAPGKEREFVAAITNRSGSTYYADSVKGRFTISRDNAKNTVYLQMNSLKPEDTAVYYCAARYGRRSGQMGYWGQGTQVTVSS", "polyreactivity (PSR sort gate)": "high polyreactivity"},
      {"sequence": "QVQLVESGGGLVQAGGSLRLSCAASGNTLGYNAAMGWYRQAPGKERELVAAITENGGSTYYADSVKGRFTISRDNAKNTVYLQMNSLKPEDTAVYYCATAPYYYRGAYGFEYWGQGTQVTVSS", "polyreactivity (PSR sort gate)": "low polyreactivity"},
      {"sequence": "QVQLVESGGGLVQAGGSLRLSCAASGNTLIQYAMGWIIQAPGKEREVLAGISGTDDSTYYADSVKGRFTISRDNAKNTVYFQMTSLKPEDRSVYYCATREWYDKYPNIYVSFDYWGQGTQVTVSS", "polyreactivity (PSR sort gate)": "low polyreactivity"},
      {"sequence": "QVQLVESGGGLVQAGGSLRLSCAASGNTLQVYAMGGYRPAPGKERELVARLTGGGRTSYADSVKGRFTISRDNAKTTVYLQMHSLKPEDTAVYYCATVYYGHIVLYDYWGQGTQVTVSA", "polyreactivity (PSR sort gate)": "low polyreactivity"},
      {"sequence": "QVQLVESGGGLVQAGGSLRLSCAASGNTQGYNAAMGWYRQAPGKERELVAAINSGGGSTYYADSVKGRFTISRDNAKNTVYLQMNSLKPEDTAVYYCAARYRSRYDYYYDRDYWGQGTQVTVSS", "polyreactivity (PSR sort gate)": "low polyreactivity"},
      {"sequence": "QVQLVESGGGLVQAGGSLRLSCAASGNTSGHNAMGWYRQAPGKERELVADIRTGDSTNYADSVKGRFTISRDNAKNTVYLQMNSLKPEDTAVYYCAADSAYDVTSYGYWGQGTQVTVSS", "polyreactivity (PSR sort gate)": "low polyreactivity"},
      {"sequence": "QVQLVESGGGLVQAGGSLRLSCAASGPIFHPYAMGWYRHAPGKERELVAAITNSGGITYADSVKGRFTISRDNAKNTVYLQMNSLKPEDTAVYYCNTATNRFHYKYRKPYDYWGQGTQVTVSS", "polyreactivity (PSR sort gate)": "low polyreactivity"},
      {"sequence": "QVQLVESGGGLVQAGGSLRLSCAASGPIFKRNAMGWYRQAPGKERELVAAISGSGGRTYYADSVKGRFTISRDNAKYTVYLQMNSLKREDTAVYYCNAGGSYYARGMDYWGQGTQVTVSS", "polyreactivity (PSR sort gate)": "high polyreactivity"},
      {"sequence": "QVQLVESGGGLVQAGGSLRLSCAASGPIFVENAMGRNRPAPGKERELVAAISGGGSTDYADSVKGRFTISRDNAKNTVYLEMNSLKPVYTAVYFCNARQVFTTAGGEMDYWGQGTQVTVSS", "polyreactivity (PSR sort gate)": "low polyreactivity"},
      {"sequence": "QVQLVESGGGLVQAGGSLRLSCAASGPIIDFYAMGWSRKAPGKERELVAAISWRGGSTYYADSVKGRFTISRDNAKNSVYLQMNSLKPEDTAVYYCANRFGPRYYWGQGTQVTVSS", "polyreactivity (PSR sort gate)": "low polyreactivity"}
    ]}
  ]
}
